Source: patent publication US20250009852A1, “DEPLETING EGFR AND HER2 OVERCOMES RESISTANCE TO EGFR INHIBITORS IN COLORECTAL CANCER” (Health Research, Inc., priority 2021, published 2025)

Tests used:
[1] = test system: SW48 tumors; test: Subcutaneous SW48 tumors in SCID mice; assay type: in vivo, mouse; conditions: sc SW48 tumors; EP 0.5 mg/kg ip daily plus PEPD^G278D 4 mg/kg ip three times weekly, or cetuximab 15 mg/kg ip twice weekly
Experimental: SCID mice (C.B.17 SCID) were bred by the Laboratory Animal Shared Resource at Roswell Park Comprehensive Cancer Center. Male mice at 7-8 weeks of age were used. All mouse experiments were approved by the Institutional Animal Care and Use Committee at Roswell Park Comprehensive Cancer Center under protocol 1022M. We established subcutaneous tumors by inoculating 1×10^6 HCT116 cells, 4×10^6 HT29 cells, or 2×10^6 SW48 cells to the flank of each mouse in 100 μl of serum free medium. Colon patient-derived xenograft (PDX) 14650 was established from a liver metastatic lesion in a patient treated at Roswell Park Comprehensive Cancer Center. Tumor fragments (˜20 mm^3) from donor mice were implanted into the flank of each mouse subcutaneously using a trocar. […] Subcutaneous tumor volume was measured using length ×width^2÷2. Tumor volume was measured three times each week. Orthotopic tumor growth was monitored by bioluminescence weekly. Mice were given D-luciferin (150 mg/kg) by ip and anesthetized with isoflurane, and tumor burden was measured by bioluminescence using the IVIS Spectrum In Vivo Imaging System (PerkinElmer). Drug treatment was started when significant tumor growth was detected. […] The mice were closely monitored for sign of adverse effects and weighed three times each week. […]

[2] = test system: EGFR; test: Immunofluorescence staining and confocal microscopy of EGFR trafficking in SW48 cells; assay type: cell-based, human; conditions: serum-free medium, 25 nM, up to 6 h
Experimental: SW48 cells were grown in chamber slides (4×10^4 cells/well) overnight with or without subsequent treatment with PEPD^G278D (25 nM) and/or chloroquine (25 μM) for up to 6 h. The cells were then washed with ice-cold PBS, fixed with 4% paraformaldehyde for 20 min at room temperature (RT), washed again with ice-cold PBS and blocked with 1% BSA in PBS for 1 h at RT. The cells were then incubated with an EGFR antibody, a His tag antibody for detection of PEPD^G278D, and/or a LAMP1 antibody overnight at 4° C., washed with PBS, incubated with a secondary antibody conjugated to Alexa-Fluor 488 or Alexa-Fluor 647 antibody for 1 h at RT and washed again with PBS. The cells were then examined with a BZ-X700 fluorescence microscope (Keyence) with a S PL FL ELWD ADM 40xC objective. Merged images from Z-stack were organized using the ImageJ software (NIH Image).

[3] = test system: PI3K; test: PI3K activity assay (PI3-Kinase Activity ELISA) in cell lysates; assay type: cell-based, human; conditions: 25 nM, 48 h
Experimental: PI3K activity was measured using a PI3-Kinase Activity ELISA Kit from Echelon Biosciences, following manufacturer's instruction. Briefly, PI3K was pulled down from whole cell lysates using an antibody for PI3K/p85. Each sample was prepared from approximately 1×10^6 cells. The entire immunoprecipitate from each sample was mixed with 30 μl of KBZ reaction buffer, which was then mixed with 30 μl of 10 μM PI(4,5)P2 substrate and incubated for 2 h at 37° C. The kinase reaction was terminated by adding 90 μl of kinase stop solution to each reaction solution, and 60 μl of each mixture was transferred together with 60 μl of PIP3 detector to a well in the incubation plate. After incubation at RT for 1 h, 100 μl per sample from the incubation plate was transferred to the detection plate and incubated for 1 h at RT. The detection plate was washed with TBST, incubated with the HRP-conjugated secondary detector for 30 min, washed again with TBST, and the immobilized HRP was measured by a standard colorimetric assay, using 3,3′,5,5′-tetramethylbenzedine as a substrate and a Synergy 2 Multi-Mode Microplate Reader to record absorbance.

[4] = test system: HER3, MET, IGF1R, SRC, AKT, ERK, MEK; test: Western blotting of whole cell lysates: other RTKs and downstream signaling proteins; assay type: cell-based, human; conditions: 25 nM, 48 h
Experimental: (§1) To prepare whole cell lysates, cells were washed with PBS twice, mixed with 1× cell lysis buffer from Cell Signaling Technology supplemented with 2 mM PMSF and a protease inhibitor cocktail from Roche Applied Science, placed on ice for 10 min, sonicated at 0-4° C. to enhance cell lysis using a Branson Model 450 sonifier, and finally centrifuged at 13,000 g for 10 min at 4° C., and the supernatant fraction is collected as whole cell lysate. Tumor and samples were mixed with RIPA buffer (25 mM Tris-HCl, PH7.6, 150 mM NaCl, 1% Nonidet P-40, 1% sodium deoxycholate, and 0.1% SDS), which was supplemented with 2 mM PMSF, the protease inhibitor cocktail mentioned above, phosphatase inhibitor cocktail 2 and phosphatase inhibitor cocktail 3 from Sigma-Aldrich at 14.3 μl buffer per mg tissue, and homogenized in a Dounce homogenizer. The homogenates were cleared by centrifugation at 13,000 g for 15 min at 4° C.
Protein concentrations in all samples were measured using the BCA Assay Kit. For Western blotting, each sample was mixed with 4× loading dye, heated for 5 min at 95° C., and resolved by SDS-PAGE (8-12.5%). Proteins were transferred to polyvinylidene fluoride membrane, probed with specific antibodies, and detected using either Luminata Classico (Millipore) or Luminata Cresendo (Millipore). For IP, cell lysates (0.5 mg protein/sample) were incubated with a desired antibody overnight at 4° C., followed by incubation of 500 μl sample with 30 μl G-Sepharose beads (2 mg/ml) for 1 h at RT. The beads were washed three times with IP buffer, suspended in 2× SDS loading buffer, boiled for 5 min, and analyzed by Western blotting.

[5] = test system: HRAS, NRAS, KRAS; test: Western blotting of whole cell lysates: RAS proteins; assay type: cell-based, human; conditions: 48 h
Experimental: as §1
Protein concentrations in all samples were measured using the BCA Assay Kit. […] Proteins were transferred to polyvinylidene fluoride membrane, probed with specific antibodies, and detected using either Luminata Classico (Millipore) or Luminata Cresendo (Millipore). […] The beads were washed three times with IP buffer, suspended in 2× SDS loading buffer, boiled for 5 min, and analyzed by Western blotting.

B1: PEPD^G278D: recombinant and enzymatically inactive mutant of human peptidase D (PEPD), with replacement of glycine 278 by aspartic acid (protein)
chain: AAATGPSFWLGNETLKVPLALFALNRQRLCERLRKNPAVQAGSIVVLQGGEETQRYCTDTGVLFLQESFFHWAFGVTEPGCYGVIDVDTGKSTLFVPRLPASHATWMGKIHSKEHFKEKYAVDDVQYVDEIASVLTSQKPSVLLTLRGVNTDSGSVCREASFDGISKFEVNNTILHPEIVESRVFKTDMELEVLRYTNKISSEAHREVMKAVKVGMKEYGLESLFEHYCYSRGGMRHSSYTCICGSGENSAVLHYGHAGAPNDRTIQNGDMCLFDMDGEYYSVASDITCSFPRNGKFTADQKAVYEAVLLSSRAVMGAMKPGDWWPDIDRLADRIHLEELAHMGILSGSVDAMVQAHLGAVFMPHGLGHFLGIDVHDVGGYPEGVERIDEPGLRSLRTARHLQPGMVLTVEPGIYFIDHLLDEALADPARASFLNREVLQRFRGFGGVRIEEDVVVIDSGIELLTCVPRTVEEIEACMAGCDKAFTPFSGPK
modifications: left off: small tags and cut ends
inhibition of tumor growth at the end of treatment [1]: 91.5% | EGFR internalization and lysosomal degradation [2]: induces EGFR internalization and lysosomal degradation | inhibition of PI3K activity ([3]; HCT116 cells): 74% | inhibition of PI3K activity ([3]; HT29 cells): 71% | inhibition of PI3K activity ([3]; SW48 cells): 76% | inhibition of PI3K activity ([3]; SW620 cells): not in SW620 cells | expression of other signaling proteins (HER3, MET, IGF1R, SRC, AKT, ERK) ([4]; HCT116, HT29 and SW48 cells): had no effect on the expression | phosphorylation of other signaling proteins (HER3, MET, IGF1R, SRC, AKT, ERK) ([4]; HCT116, HT29 and SW48 cells): markedly decreased their phosphorylation | MEK phosphorylation ([4]; HCT116 and HT29 cells): markedly decreased MEK phosphorylation | phosphorylation or expression of HER3, MET, IGF1R, SRC, AKT, and ERK ([4]; SW620 cells that lack EGFR and HER2): had no effect | expression of HRAS and NRAS ([5]; HCT116, HT29 and SW48 cells, 25 nM): strongly downregulates | expression of WT or mutated KRAS ([5]; PEPD^G278D 25 nM, cetuximab 275 nM): neither PEPD^G278D nor cetuximab regulated the expression
